B1: AMOTL2 peptide 64-79 (Angiomotin-like protein 2), 16-mer library wild type / TNKS ANK (TNKS 12 ANK repeats, residues 174-649) (parent complex)
chain 1: QVLQQATRQEPQGQEH
chain 2: TGVPAVSGALRELLEACRNGDVSRVKRLVDAANVNAKDMAGRKSSPLHFAAGFGRKDVVEHLLQMGANVHARDDGGLIPLHNACSFGHAEVVSLLLCQGADPNARDNWNYTPLHEAAIKGKIDVCIVLLQHGADPNIRNTDGKSALDLADPSAKAVLTGEYKKDELLEAARSGNEEKLMALLTPLNVNCHASDGRKSTPLHLAAGYNRVRIVQLLLQHGADVHAKDKGGLVPLHNACSYGHYEVTELLLKHGACVNAMDLWQFTPLHEAASKNRVEVCSLLLSHGADPTLVNCHGKSAVDMAPTPELRERLTYEFKGHSLLQAAREADLAKVKKTLALEIINFKQPQSHETALHCAVASLHPKRKQVTELLLRKGANVNEKNKDFMTPLHVAAERAHNDVMEVLHKHGAKMNALDTLGQTALHRAALAGHLQTCRLLLSYGSDPSIISLQGFTAAQMGNEAVQQILSESTPIRTSD

Variants of: B1
Assay: proteomic peptide phage display deep mutational scan (ProP-PD DMS): M13 P8 16-mer library selected against immobilised GST-tagged bait for four days (rounds), NGS of the eluted pools per day and pseudo-replica; bait immobilised on MaxiSorp plates (10 µg), library pre-cleared on GST, 2 h binding at 4 °C, five washes; one round per day, days 1-4; value from days 2 and 3

| Variant | screen value |
| --- | --- |
| chain 1 QVQQQATRQEPQGQEH [chain 1 L3Q] | 0.00366 average fractional NGS count over selection days 2 and 3 (reads of this peptide / all reads for the bait, averaged over … |
| chain 1 QVLQQALRQEPQGQEH [chain 1 T7L] | 0.000808 average fractional NGS count over selection days 2 and 3 (reads of this peptide / all reads for the bait, averaged over … |
| chain 1 QVLQQATRVEPQGQEH [chain 1 Q9V] | 0.000414 average fractional NGS count over selection days 2 and 3 (reads of this peptide / all reads for the bait, averaged over … |
| chain 1 QVLQQGTRQEPQGQEH [chain 1 A6G] | 0.000155 average fractional NGS count over selection days 2 and 3 (reads of this peptide / all reads for the bait, averaged over … |
| chain 1 QVLQQATRQEPYGQEH [chain 1 Q12Y] | 0.0011 average fractional NGS count over selection days 2 and 3 (reads of this peptide / all reads for the bait, averaged over … |
| chain 1 QVLQQATRQEPQGQEV [chain 1 H16V] | 0.000284 average fractional NGS count over selection days 2 and 3 (reads of this peptide / all reads for the bait, averaged over … |
| chain 1 QVLQQITRQEPQGQEH [chain 1 A6I] | 0.000647 average fractional NGS count over selection days 2 and 3 (reads of this peptide / all reads for the bait, averaged over … |
| chain 1 QVLQQATRQEPMGQEH [chain 1 Q12M] | 0.00046 average fractional NGS count over selection days 2 and 3 (reads of this peptide / all reads for the bait, averaged over … |
| chain 1 QVMQQATRQEPQGQEH [chain 1 L3M] | 0.000608 average fractional NGS count over selection days 2 and 3 (reads of this peptide / all reads for the bait, averaged over … |
| chain 1 QVLQQATRQEPLGQEH [chain 1 Q12L] | 0.00049 average fractional NGS count over selection days 2 and 3 (reads of this peptide / all reads for the bait, averaged over … |
| chain 1 QVLQQATRQEPQGHEH [chain 1 Q14H] | 0.00069 average fractional NGS count over selection days 2 and 3 (reads of this peptide / all reads for the bait, averaged over … |
| chain 1 QVLQQATRQEPQGIEH [chain 1 Q14I] | 0.002 average fractional NGS count over selection days 2 and 3 (reads of this peptide / all reads for the bait, averaged over … |
| chain 1 QVLQQATRQEPQGQNH [chain 1 E15N] | 0.00037 average fractional NGS count over selection days 2 and 3 (reads of this peptide / all reads for the bait, averaged over … |
| chain 1 QVKQQATRQEPQGQEH [chain 1 L3K] | 0.00157 average fractional NGS count over selection days 2 and 3 (reads of this peptide / all reads for the bait, averaged over … |
| chain 1 QVLQQATRQEPQGQFH [chain 1 E15F] | 0.000795 average fractional NGS count over selection days 2 and 3 (reads of this peptide / all reads for the bait, averaged over … |
| chain 1 QVLQQATRQEPNGQEH [chain 1 Q12N] | 0.000885 average fractional NGS count over selection days 2 and 3 (reads of this peptide / all reads for the bait, averaged over … |
| chain 1 QWLQQATRQEPQGQEH [chain 1 V2W] | 0.00102 average fractional NGS count over selection days 2 and 3 (reads of this peptide / all reads for the bait, averaged over … |
| chain 1 QVLQQAMRQEPQGQEH [chain 1 T7M] | 0.000455 average fractional NGS count over selection days 2 and 3 (reads of this peptide / all reads for the bait, averaged over … |
| chain 1 QVLQQAPRQEPQGQEH [chain 1 T7P] | 0.000581 average fractional NGS count over selection days 2 and 3 (reads of this peptide / all reads for the bait, averaged over … |

| Variant | screen value |
| --- | --- |
| chain 1 QVLQQATRQEPQGQVH [chain 1 E15V] | 0.00435 average fractional NGS count over selection days 2 and 3 (reads of this peptide / all reads for the bait, averaged over … |
| chain 1 QVLQQATRQEPQGQSH [chain 1 E15S] | 0.00106 average fractional NGS count over selection days 2 and 3 (reads of this peptide / all reads for the bait, averaged over … |
| chain 1 QVLIQATRQEPQGQEH [chain 1 Q4I] | 0.0028 average fractional NGS count over selection days 2 and 3 (reads of this peptide / all reads for the bait, averaged over … |
| chain 1 QVLQQATRQEPQGQYH [chain 1 E15Y] | 0.0003 average fractional NGS count over selection days 2 and 3 (reads of this peptide / all reads for the bait, averaged over … |
| chain 1 QVLDQATRQEPQGQEH [chain 1 Q4D] | 0.000668 average fractional NGS count over selection days 2 and 3 (reads of this peptide / all reads for the bait, averaged over … |
| chain 1 QVLQQATRQEPQGTEH [chain 1 Q14T] | 0.00286 average fractional NGS count over selection days 2 and 3 (reads of this peptide / all reads for the bait, averaged over … |
| chain 1 QVLQQAIRQEPQGQEH [chain 1 T7I] | 0.000358 average fractional NGS count over selection days 2 and 3 (reads of this peptide / all reads for the bait, averaged over … |
| chain 1 QALQQATRQEPQGQEH [chain 1 V2A] | 0.00302 average fractional NGS count over selection days 2 and 3 (reads of this peptide / all reads for the bait, averaged over … |
| chain 1 QVLQFATRQEPQGQEH [chain 1 Q5F] | 0.00178 average fractional NGS count over selection days 2 and 3 (reads of this peptide / all reads for the bait, averaged over … |
| chain 1 QVLQQATRQVPQGQEH [chain 1 E10V] | 0.000245 average fractional NGS count over selection days 2 and 3 (reads of this peptide / all reads for the bait, averaged over … |
| chain 1 QVLPQATRQEPQGQEH [chain 1 Q4P] | 0.000712 average fractional NGS count over selection days 2 and 3 (reads of this peptide / all reads for the bait, averaged over … |
| chain 1 QVLQQATRQEPQGREH [chain 1 Q14R] | 0.0014 average fractional NGS count over selection days 2 and 3 (reads of this peptide / all reads for the bait, averaged over … |
| chain 1 QVLQQATRQAPQGQEH [chain 1 E10A] | 0.00157 average fractional NGS count over selection days 2 and 3 (reads of this peptide / all reads for the bait, averaged over … |
| chain 1 QVLQQATRQEPQGLEH [chain 1 Q14L] | 0.000371 average fractional NGS count over selection days 2 and 3 (reads of this peptide / all reads for the bait, averaged over … |
| chain 1 QVLQQANRQEPQGQEH [chain 1 T7N] | 0.00127 average fractional NGS count over selection days 2 and 3 (reads of this peptide / all reads for the bait, averaged over … |
| chain 1 QVLQQATRQEPQGQEP [chain 1 H16P] | 0.000313 average fractional NGS count over selection days 2 and 3 (reads of this peptide / all reads for the bait, averaged over … |
| chain 1 QVLQQAARQEPQGQEH [chain 1 T7A] | 0.000494 average fractional NGS count over selection days 2 and 3 (reads of this peptide / all reads for the bait, averaged over … |
| chain 1 QVLQQRTRQEPQGQEH [chain 1 A6R] | 0.000251 average fractional NGS count over selection days 2 and 3 (reads of this peptide / all reads for the bait, averaged over … |
| chain 1 QVLQQATRQEPQGKEH [chain 1 Q14K] | 0.000473 average fractional NGS count over selection days 2 and 3 (reads of this peptide / all reads for the bait, averaged over … |

| Variant | screen value |
| --- | --- |
| chain 1 QVLQSATRQEPQGQEH [chain 1 Q5S] | 0.00183 average fractional NGS count over selection days 2 and 3 (reads of this peptide / all reads for the bait, averaged over … |
| chain 1 QVTQQATRQEPQGQEH [chain 1 L3T] | 0.00246 average fractional NGS count over selection days 2 and 3 (reads of this peptide / all reads for the bait, averaged over … |
| chain 1 QVLHQATRQEPQGQEH [chain 1 Q4H] | 0.000314 average fractional NGS count over selection days 2 and 3 (reads of this peptide / all reads for the bait, averaged over … |
| chain 1 QVLQQATRQFPQGQEH [chain 1 E10F] | 0.000339 average fractional NGS count over selection days 2 and 3 (reads of this peptide / all reads for the bait, averaged over … |
| chain 1 QVAQQATRQEPQGQEH [chain 1 L3A] | 0.000396 average fractional NGS count over selection days 2 and 3 (reads of this peptide / all reads for the bait, averaged over … |
| chain 1 QVLQQVTRQEPQGQEH [chain 1 A6V] | 0.0104 average fractional NGS count over selection days 2 and 3 (reads of this peptide / all reads for the bait, averaged over … |
| chain 1 QVLSQATRQEPQGQEH [chain 1 Q4S] | 0.000703 average fractional NGS count over selection days 2 and 3 (reads of this peptide / all reads for the bait, averaged over … |
| chain 1 QVLQQATRQQPQGQEH [chain 1 E10Q] | 0.000624 average fractional NGS count over selection days 2 and 3 (reads of this peptide / all reads for the bait, averaged over … |
| chain 1 QVLQQATREEPQGQEH [chain 1 Q9E] | 0.000877 average fractional NGS count over selection days 2 and 3 (reads of this peptide / all reads for the bait, averaged over … |
| chain 1 QVLQQATRQEPQGQEA [chain 1 H16A] | 0.00111 average fractional NGS count over selection days 2 and 3 (reads of this peptide / all reads for the bait, averaged over … |
| chain 1 QVLQQAVRQEPQGQEH [chain 1 T7V] | 0.00296 average fractional NGS count over selection days 2 and 3 (reads of this peptide / all reads for the bait, averaged over … |
| chain 1 QTLQQATRQEPQGQEH [chain 1 V2T] | 0.00555 average fractional NGS count over selection days 2 and 3 (reads of this peptide / all reads for the bait, averaged over … |
| chain 1 QVLQMATRQEPQGQEH [chain 1 Q5M] | 0.000456 average fractional NGS count over selection days 2 and 3 (reads of this peptide / all reads for the bait, averaged over … |
| chain 1 QILQQATRQEPQGQEH [chain 1 V2I] | 0.0014 average fractional NGS count over selection days 2 and 3 (reads of this peptide / all reads for the bait, averaged over … |
| chain 1 QVLQQATRQEPQGQEY [chain 1 H16Y] | 0.00033 average fractional NGS count over selection days 2 and 3 (reads of this peptide / all reads for the bait, averaged over … |
| chain 1 QVLQQATRMEPQGQEH [chain 1 Q9M] | 0.000331 average fractional NGS count over selection days 2 and 3 (reads of this peptide / all reads for the bait, averaged over … |
| chain 1 QVLQQATRQEPQGQPH [chain 1 E15P] | 0.000133 average fractional NGS count over selection days 2 and 3 (reads of this peptide / all reads for the bait, averaged over … |
| chain 1 QVYQQATRQEPQGQEH [chain 1 L3Y] | 0.000502 average fractional NGS count over selection days 2 and 3 (reads of this peptide / all reads for the bait, averaged over … |
